# Earlier results in PMC12537681.
# Molecular target: Spike glycoprotein trimer (Severe acute respiratory syndrome coronavirus 2) (UniProt P0DTC2)
substance,measurement,value
TLR4 (from UniProt O00206),Kd,300 nM
